Laboratory results taken from US20100099203A1.

Columns and labels:
Protein A [1] = target: Protein A (UniProt P38507); test: Back scattering interferometry, free solution in PBS, 0.67 uM Protein A with IgG varied over 6 concentrations, 2 h at room temperature, PEG-5mer passivated chip
Protein A [2] = target: Protein A (UniProt P38507); test: Back scattering interferometry, free solution in PBS, 0.67 uM Protein A with IgG varied over 6 concentrations, 2 h at room temperature, PEG 200 passivated chip

Substance | Kd (Protein A [1]) [nM] | Kd (Protein A [2]) [nM]
IgG (antibody) | 8 | 
IgG Fc segment |  | 35
